In the supplement of paper PMC10126150:
± gives the standard deviation of the averaged measurements.

System: ATP
Test: switch fluorescence ratio, 500 uM ATP over buffer (Cy3 cluster intensity, sum of 5 cycles each) (fold (ratio)); higher = stronger signal-on switching upon ATP binding; sequences stand for … in TCGTCGGCAGCGTCAGATGTGTATAAGAGACAGTTTTTTTTTTTTTTTTTTTTTTTTT…TC
Conditions: aptamer strand: ATP DNA aptamer (quencher-CACCTGGGGGAGTATTGCGGAGGAAGG + anchor), 100 nM annealed; ATP concentration: 500 uM
In short: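 Cy3-labelled switching-strand clusters on a modified Illumina MiSeq flow-cell were annealed to 100 nM quencher-labelled ATP aptamer, imaged in selection buffer, then imaged after 15 min with 500 uM ATP at 22 °C. Five buffer/ATP cycles ran, with NaOH stripping and re-annealing between them. The fluorescence ratio is summed target-cycle over summed buffer-cycle Cy3 intensity per cluster, averaged per switch-domain sequence. Clusters outside 100-1000 RFU were excluded.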
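Also: ATP exposure 15 min at 22 °C before imaging.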

Sequence | switch fluorescence ratio
GGGGCTTCTA | 0.957 ± 0.018
GCTGCTTGCG | 1 ± 0.014
CTATTTACGA | 1.05 ± 0.015
TGGGAGTAAA | 1.02 ± 0.027
GTTGTACGGG | 1.02 ± 0.047
GTAGGACATC | 1.01 ± 0.023
TTTGTTTGAA | 0.962 ± 0.023
TGGTTGGGTT | 1 ± 0.021
TGGAAAGGGG | 1.01 ± 0.014
AACTTGTCAT | 1 ± 0.0063
TTGGACATGC | 1.06 ± 0.14
CCGAGTTGTG | 1.05 ± 0.041
GAACTCTTGT | 1.05 ± 0.096
ATGGTAGCTT | 1 ± 0.024
TAGGGTTTGG | 0.992 ± 0.014
TTGAAGAAAC | 1.04 ± 0.018
TTTTCCGGTT | 1.23 ± 0.42
TCGTTCTTTT | 0.966 ± 0.019
AATATGAGGG | 1.01 ± 0.042
CCGCTGGATA | 1.51 ± 0.18
TTGACGTAAA | 1.61 ± 0.56
CTTCAAAAGG | 1.68 ± 0.96
AATAGGACGG | 1.03 ± 0.022
TAATTAAGGA | 1.004 ± 0.0096
CAATGGGACG | 1.03 ± 0.098
TTTTTAGAAT | 0.993 ± 0.027

Sequence | switch fluorescence ratio
TACAGGCGTA | 0.9955 ± 0.0069
GATACGGGGA | 0.988 ± 0.029
TGAAACTTGT | 1.01 ± 0.041
GATCTGGACA | 1.01 ± 0.032
ATGTAGTCGC | 1.004 ± 0.0012
TGCGGAAGTT | 1.01 ± 0.023
TGGGGGCCGA | 1.049 ± 0.0034
ACATGCACGG | 1.268 ± 0.0013
TTTAAGCTGG | 0.99 ± 0.017
CTTAGGCCAG | 0.998 ± 0.032
TACATTGGCT | 0.982 ± 0.019
CAGGATCATC | 0.9884 ± 0.0035
TGGGCGGGGC | 0.998 ± 0.018
GGATTCAGGG | 1.01 ± 0.018
GCGTTTCGGA | 1 ± 0.02
TAGGCAATCT | 1.25 ± 0.092
ATTGGACTG | 1.01 ± 0.035
GGGGGGGCCT | 0.999 ± 0.036
ATGAGGCCGG | 1.12 ± 0.066
GATCTTTTTT | 1.02 ± 0.023
GTCACTATTG | 1.02 ± 0.0022
GAGGTGGTAG | 0.951 ± 0.034
GAAGGTGTTG | 1.036 ± 0.0084
GGTTCAGGTG | 3.38 ± 0.34
TGGGGGCTTC | 0.9896 ± 0.0091
AGCAAGGATT | 1.1 ± 0.1

Sequence | switch fluorescence ratio
CCAGAAAAGG | 1.31 ± 0.47
TGATTTTCTC | 1.01 ± 0.048
GATTGTGCCG | 1.03 ± 0.061
TTAGGTCCGG | 1.008 ± 0.0092
CTTACGGGTC | 0.9901 ± 0.005
ATTGATAGCA | 1.03 ± 0.028
CGAAGGTTTT | 1.02 ± 0.015
TGCAAATTGC | 0.997 ± 0.019
GGCATTATTT | 1.02 ± 0.023
TGTAACTGTG | 1.15 ± 0.028
TTTTTATTTC | 1 ± 0.019
AAAGAGTTGC | 0.9785 ± 0.0069
CGGCCGTACG | 1.01 ± 0.019
TCAGGGCGAT | 1.03 ± 0.026
ACTAGAAGAC | 1.04 ± 0.012
CTGACTGCAG | 1.01 ± 0.049
TGGGGTGCAG | 1.03 ± 0.017
AGAATTTTCC | 1.08 ± 0.076
GTTGAAGGAC | 0.996 ± 0.026
TTTTTACGGG | 1.02 ± 0.043
TTTCCCGTAT | 1.07 ± 0.049
ATTTAGGGTA | 0.9856 ± 0.0078
GGCCAGCGGA | 1.01 ± 0.024
GCGGGGTTTC | 1.03 ± 0.059
ATTATGGGTA | 1.02 ± 0.036
TTCTATTTGA | 1.0138 ± 0.00028

Sequence | switch fluorescence ratio
TGCATTAGGG | 0.993 ± 0.046
TTTGGGTTCG | 0.986 ± 0.019
GGTATGGATA | 1 ± 0.027
TCTGATTATA | 0.987 ± 0.024
AAAACGTTAC | 1.68 ± 0.02
CGTGTCTTAA | 0.974 ± 0.021
GTTATAGGCT | 0.999 ± 0.035
TTCTCAGTTT | 1.15 ± 0.22
CTTTATGGGA | 0.988 ± 0.031
TTAGAGGTCT | 0.978 ± 0.011
GGGTTGAAGG | 0.9875 ± 0.0022
GAGATACTCT | 1.03 ± 0.012
TGTTTTTCTT | 1.01 ± 0.033
CTTGTGCTTG | 1.0058 ± 0.00065
AAACATAAGC | 0.991 ± 0.038
ACTCGAGGGG | 1.01 ± 0.041
TAGCTAGTCG | 1.01 ± 0.039
AATTGAGTAT | 1.01 ± 0.015
CGTCCGGCGC | 1.346 ± 0.0029
TTTATTGTTA | 1.05 ± 0.068
GCATGGAGTA | 1.02 ± 0.029
GCTAGATCGT | 0.969 ± 0.033
CGTAGTAGGC | 1.12 ± 0.1
CGGGGATGTC | 1.05 ± 0.014
GGGGATGATG | 0.9683 ± 0.0046
CATGTGCGAG | 1.01 ± 0.021

Sequence | switch fluorescence ratio
GCGGCACGTG | 0.97 ± 0.048
TTTTTGGTTT | 1.02 ± 0.083
TGGAGAGGGA | 0.9805 ± 0.0078
AGATTGCCGT | 1.01 ± 0.068
GGCAATAATA | 1.09 ± 0.035
CGGGGGTCGA | 0.989 ± 0.031
GCGTTAAGTT | 0.984 ± 0.035
GCTTATGAAG | 1.02 ± 0.02
TCCCCTGTGT | 1.86 ± 0.54
TTAGGAACAC | 1.07 ± 0.12
ACGGAAATGT | 1.18 ± 0.1
ACTAGTATGG | 1.03 ± 0.053
TAGGGGTCCA | 0.987 ± 0.018
CGCGGGAATG | 1.05 ± 0.033
TTTTAAGAAG | 1.02 ± 0.018
CCGGCTTTCC | 1.15 ± 0.027
CTTTAGATGT | 0.98 ± 0.034
GGCGGCTACG | 1.003 ± 0.0035
TGGGTATAAC | 1 ± 0.018
CGTCTAGAGA | 1.02 ± 0.073
GGTATTATTT | 0.995 ± 0.023
CAATGGTTTG | 1 ± 0.018
AGCTAGGTAA | 1.01 ± 0.029
AGAGGCATCG | 0.9941 ± 0.005
TCAATGGGGA | 0.998 ± 0.013
GGTTGAGGGC | 1 ± 0.02

Sequence | switch fluorescence ratio
CTAAGCCGTT | 0.971 ± 0.011
TAGGGGGGT | 0.9765 ± 0.0032
CACATGGTGT | 1.15 ± 0.02
TTAAATATTT | 0.992 ± 0.022
AAAAACAGCG | 1.02 ± 0.053
GCTTTGAATT | 0.985 ± 0.017
TTTTTAAGCA | 1.02 ± 0.034
TTTATAACGG | 0.988 ± 0.038
CCCGGCCCAG | 1.05 ± 0.064
AGAAAGGGCA | 1.04 ± 0.03
AATTGTTTCA | 0.974 ± 0.016
CTGTACTGGG | 0.9989 ± 0.0061
GCGAGGTTGA | 1.045 ± 0.0015
TTGTGGGGTC | 1 ± 0.036
CGGGGCGGGA | 1.01 ± 0.021
GGCTTGCAAC | 1.03 ± 0.012
TAAATAAATT | 1.01 ± 0.044
TATTGAATGG | 0.972 ± 0.03
AGCGCCAGGG | 1.13 ± 0.035
TGAGTGGATG | 0.971 ± 0.075
ACCTAATGTT | 1.02 ± 0.016
GGGATTAGCA | 0.988 ± 0.042
TTGAGGGTCC | 1.004 ± 0.0056
